Reference: PMC11119796
Values joined by “and” are separate entries in the source; they are usually repeats but may differ in a detail not shown here. Equal entries are not always repeated.

Tests used:
[1] = target: endogenous PKM2 (A549 cells) (human (endogenous in A549)) (UniProt P14618); test: cross-linking; DSS 250 μM added to collected cells in PBS pH 8.0, 30 min at 37 °C, quenched with 10 mM Tris-HCl pH 7.5; lysis and Western blot of PKM2; 4T1 cells (control or Islr-deleted) and A549 cells (with or without stable ISLR, H2O2 at indicated dose for 30 min)
[2] = target: endogenous Pkm2 (4T1 cells) (mouse (endogenous in 4T1)) (UniProt P52480); test: as above

Chain of endogenous Pkm2 (4T1 cells), P52480 1-531 (enzyme; other documents disagree on this pair) (P52480 whole entry): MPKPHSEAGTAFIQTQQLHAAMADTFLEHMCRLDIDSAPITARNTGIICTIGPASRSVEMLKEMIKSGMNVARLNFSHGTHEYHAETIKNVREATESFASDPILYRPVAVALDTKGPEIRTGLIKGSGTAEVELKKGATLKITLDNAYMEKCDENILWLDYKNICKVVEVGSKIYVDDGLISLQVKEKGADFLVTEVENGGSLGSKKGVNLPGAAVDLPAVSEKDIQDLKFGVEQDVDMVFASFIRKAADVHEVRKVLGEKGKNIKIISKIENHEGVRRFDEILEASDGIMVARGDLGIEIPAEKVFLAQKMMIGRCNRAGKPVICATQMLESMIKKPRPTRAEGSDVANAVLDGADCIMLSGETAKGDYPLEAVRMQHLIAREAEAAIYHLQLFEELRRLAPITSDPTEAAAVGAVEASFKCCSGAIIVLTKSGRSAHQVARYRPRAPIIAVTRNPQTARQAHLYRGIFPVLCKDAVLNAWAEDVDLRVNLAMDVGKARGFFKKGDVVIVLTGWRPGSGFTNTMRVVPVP
Chain of endogenous PKM2 (A549 cells), P14618 1-531 (enzyme; other documents disagree on this pair) (P14618 whole entry): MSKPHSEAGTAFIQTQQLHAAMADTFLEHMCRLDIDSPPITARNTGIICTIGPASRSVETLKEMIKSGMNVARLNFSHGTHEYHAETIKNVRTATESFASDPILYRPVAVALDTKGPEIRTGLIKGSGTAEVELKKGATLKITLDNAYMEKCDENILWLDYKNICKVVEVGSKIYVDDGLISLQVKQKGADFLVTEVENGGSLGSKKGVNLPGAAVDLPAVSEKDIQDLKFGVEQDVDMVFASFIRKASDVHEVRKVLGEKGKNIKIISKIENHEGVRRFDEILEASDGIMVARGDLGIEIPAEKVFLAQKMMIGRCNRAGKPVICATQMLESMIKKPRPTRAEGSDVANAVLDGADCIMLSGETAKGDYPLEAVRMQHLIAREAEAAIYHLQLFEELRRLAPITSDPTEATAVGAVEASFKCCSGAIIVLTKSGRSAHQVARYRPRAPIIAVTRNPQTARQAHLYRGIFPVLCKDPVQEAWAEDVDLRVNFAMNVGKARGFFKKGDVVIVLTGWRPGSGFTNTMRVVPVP

| stoichiometry N [1] | stoichiometry N [2] | Substance |
| --- | --- | --- |
| 2 |  | endogenous PKM2 (A549 cells), P14618 1-531 (enzyme; other documents disagree on this pair) |
|  | 2 and 4 | endogenous Pkm2 (4T1 cells), P52480 1-531 (enzyme; other documents disagree on this pair) |
